Experimental data from PMC11531391 (Cell, 2024).
Substitutions are numbered along the chain they refer to. “And” between values parts separate entries of the source, which are not always exact repeats. Equal values may be shown once. Blank lines part the entries; values can stand above or below the molecule they belong to.

Tests used:
[1] = molecular target: L-TGF-β1 (latent TGF-β1 dimer, R249A, as it stands in L-TGF-β1/GARP) (human); test: cryo-EM structure; purified L-TGF-β1/GARP or L-TGF-β3/GARP alone, 0.3 mg/ml
[2] = molecular target: T1, L-TGF-β3/GARP (purified complex of latent TGF-β3 with the GARP ectodomain) (human, UniProt Q14392 20-627); test: mass photometry; L-TGF-β3/GARP with αvβ8; TBS with 1 mM CaCl2, 1 mM MgCl2; details: both partners purified
T1 chain 1: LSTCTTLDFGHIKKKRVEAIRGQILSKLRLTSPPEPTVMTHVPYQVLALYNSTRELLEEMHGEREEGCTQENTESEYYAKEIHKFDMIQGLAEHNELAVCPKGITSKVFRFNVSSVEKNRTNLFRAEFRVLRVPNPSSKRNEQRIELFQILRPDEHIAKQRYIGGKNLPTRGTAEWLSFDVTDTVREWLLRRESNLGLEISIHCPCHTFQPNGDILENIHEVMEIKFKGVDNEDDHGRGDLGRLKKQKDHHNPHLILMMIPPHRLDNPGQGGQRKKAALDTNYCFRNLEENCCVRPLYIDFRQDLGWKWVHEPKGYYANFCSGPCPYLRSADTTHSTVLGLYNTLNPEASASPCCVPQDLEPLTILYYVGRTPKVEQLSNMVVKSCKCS
T1 chain 2: T1 chain 1 with D240E
T1 chain 3: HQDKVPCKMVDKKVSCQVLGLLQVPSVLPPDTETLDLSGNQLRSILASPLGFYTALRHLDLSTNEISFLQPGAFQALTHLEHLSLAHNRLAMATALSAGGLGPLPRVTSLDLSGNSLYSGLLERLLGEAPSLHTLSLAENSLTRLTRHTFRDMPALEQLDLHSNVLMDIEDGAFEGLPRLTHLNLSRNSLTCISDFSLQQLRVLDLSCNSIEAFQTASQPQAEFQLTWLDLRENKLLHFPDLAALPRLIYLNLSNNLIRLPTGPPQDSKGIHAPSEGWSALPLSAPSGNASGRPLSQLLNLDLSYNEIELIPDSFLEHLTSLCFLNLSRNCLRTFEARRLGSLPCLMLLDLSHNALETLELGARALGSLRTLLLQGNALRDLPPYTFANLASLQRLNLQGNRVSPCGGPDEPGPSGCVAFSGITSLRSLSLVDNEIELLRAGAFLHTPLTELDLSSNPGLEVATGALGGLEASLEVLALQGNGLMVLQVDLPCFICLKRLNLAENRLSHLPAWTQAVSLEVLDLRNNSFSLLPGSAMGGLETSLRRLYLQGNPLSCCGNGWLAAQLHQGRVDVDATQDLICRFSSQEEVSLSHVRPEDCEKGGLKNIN

[3] = molecular target: L-TGF-β1/GARP (secreted complex of latent TGF-β1 with the GARP ectodomain) (human) (UniProt Q14392); test: mass photometry + cryo-EM structure; L-TGF-β1/GARP mixed with recombinant αvβ8 ectodomain at 1:1 molar ratio; mass photometry in TBS with 1 mM CaCl2, 1 mM MgCl2

stoichiometry N [1]: 2
Molecule: L-TGF-β1 (latent TGF-β1 dimer, R249A, as it stands in L-TGF-β1/GARP) (natural protein)

stoichiometry N [2]: 1 and 2
stoichiometry N [3]: 1 and 2
B1: secreted ectodomain of αvβ8 integrin (receptor)
chain 1: FNLDVDSPAEYSGPEGSYFGFAVDFFVPSASSRMFLLVGAPKANTTQPGIVEGGQVLKCDWSSTRRCQPIEFDATGNRDYAKDDPLEFKSHQWFGASVRSKQDKILACAPLYHWRTEMKQEREPVGTCFLQDGTKTVEYAPCRSQDIDADGQGFCQGGFSIDFTKADRVLLGGPGSFYWQGQLISDQVAEIVSKYDPNVYSIKYNNQLATRTAQAIFDDSYLGYSVAVGDFNGDGIDDFVSGVPRAARTLGMVYIYDGKNMSSLYNFTGEQMAAYFGFSVAATDINGDDYADVFIGAPLFMDRGSDGKLQEVGQVSVSLQRASGDFQTTKLNGFEVFARFGSAIAPLGDLDQDGFNDIAIAAPYGGEDKKGIVYIFNGRSTGLNAVPSQILEGQWAARSMPPSFGYSMKGATDIDKNGYPDLIVGAFGVDRAILYRARPVITVNAGLEVYPSILNQDNKTCSLPGTALKVSCFNVRFCLKADGKGVLPRKLNFQVELLLDKLKQKGAIRRALFLYSRSPSHSKNMTISRGGLMQCEELIAYLRDESEFRDKLTPITIFMEYRLDYRTAADTTGLQPILNQFTPANISRQAHILLDCGEDNVCKPKLEVSVDSDQKKIYIGDDNPLTLIVKAQNQGEGAYEAELIVSIPLQADFIGVVRNNEALARLSCAFKTENQTRQVVCDLGNPMKAGTQLLAGLRFSVHQQSEMDTSVKFDLQIQSSNLFDKVSPVVSHKVDLAVLAAVEIRGVSSPDHVFLPIPNWEHKENPETEEDVGPVVQHIYELRNNGPSSFSKAMLHLQWPYKYNNNTLLYILHYDIDGPMNCTSDMEINPLRIKISSLQTTEKNDTVAGQGERDHLITKRDLALSEGDIHTLGCGVAQCLKIVCQVGRLDRGKSAILYVKSLLWTETFMNKENQNHSYSLKSSASFNVIEFPYKNLPIEDITNSTLVTTNVTWGIQPAPMPV
chain 2: EDNRCASSNAASCARCLALGPECGWCVQEDFISGGSRSERCDIVSNLISKGCSVDSIEYPSVHVIIPTENEINTQVTPGEVSIQLRPGAEANFMLKVHPLKKYPVDLYYLVDVSASMHNNIEKLNSVGNDLSRKMAFFSRDFRLGFGSYVDKTVSPYISIHPERIHNQCSDYNLDCMPPHGYIHVLSLTENITEFEKAVHRQKISGNIDTPEGGFDAMLQAAVCESHIGWRKEAKRLLLVMTDQTSHLALDSKLAGIVVPNDGNCHLKNNVYVKSTTMEHPSLGQLSEKLIDNNINVIFAVQGKQFHWYKDLLPLLPGTIAGEIESKAANLNNLVVEAYQKLISEVKVQVENQVQGIYFNITAICPDGSRKPGMEGCRNVTSNDEVLFNVTVTMKKCDVTGGKNYAIIKPIGFNETAKIHIHRNCSCQCEDNRGPKGKCVDETFLDSKCFQCDENKCHFDEDQFSSESCKSHKDQPVCSGRGVCVCGKCSCHKIKLGKVYGKYCEKDDFSCPYHHGNLCAGHGECEAGRCQCFSGWEGDRCQCPSAAAQHCVNSKGQVCSGRGTCVCGRCECTDPRSIGRFCEHCPTCYTACKENWNCMQCLHPHNLSQAILDQCKTSCALMEQQHYVDQTSECFSSPSYLR
notes: integrin αv, truncated (αvtr pcDM8), secreted ectodomain; integrin β8, truncated (β8tr), secreted ectodomain; also called αvβ8tr; truncated αvβ8 ectodomain; source: ExpiCHO, transfected, purified from supernatant (Protein G crosslinked with antibody 8B8, SEC on Superose 6)
